# Measured values as given in the supplement of paper PMC12042874.
# ± gives the uncertainty stated by the source.
# Assay: amyloid nucleation score (Sup35N fusion, yeast selection) (log enrichment); library NNK3; higher = more nucleation; inactive = no reads after selection
# Summary of the method: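 Nucleation score: DiMSum log enrichment of output over input reads, centred on the mode score of non-aggregating sequences. Only sequences with at least 100 input reads were kept. Reads came from Illumina sequencing of plasmid inserts before and after 7 days of growth at 30°C without adenine and uracil, in psi-negative yeast expressing Sup35N fused to peptides of 20 random codons after 24 hours of induction with 100 μM copper sulfate.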
row,Substance,amyloid nucleation score
1,FEQNVGGLYWNKWSWGNLMR,inactive
2,FFETRKYCGKEWFSGMLDMQ,inactive
3,DVGTCSLLNGHKYFFRFNVV,inactive
4,FNSPSWTYDRLHFPAEQQAL,inactive
5,LWVTM,1.37 ± 0.14
6,GPTLSGLNIAHWSNIYQDLG,inactive
7,FFRSQKWKSAYMLDNGHSNS,inactive
8,YFMCREMALILEHLCEAGWC,inactive
9,IIAPRLY,inactive
10,YSRSGISFFTGRHKLFSMYG,inactive
11,LRGYSASSSIVCESSRYARL,inactive
12,GVAELMGVWDVKLVVPLEES,inactive
13,YLFSELYMLNLSRFAK,inactive
14,AFSDGTLSLTSKVRLGDS,inactive
15,MTRCLSFWTRSQVLYFCWKL,inactive
16,CLPWHWMLNYFGYKNVKS,inactive
17,FKAMTFAYGYLTVGLSVVGV,inactive
18,VYVAYALFRRD,-0.333 ± 0.9
19,QFIEMSSQYFSMRYVDRVAD,inactive
20,MKDMSFTYLLFKSHCAWVSL,inactive
21,RGWYINTVGYRTRAGHNLCG,inactive
22,RVDPTSRMSGIYHWILT,inactive
23,FELPMHTGV,inactive

row,Substance,amyloid nucleation score
1,SSKFRRLLGVIMMADLMQVY,inactive
2,RTISGYSPSIVGQRDSRGFL,inactive
3,LLVVNNCIYGMVKRSIGYD,2.13 ± 0.07
4,IVVLWV,-0.341 ± 0.39
5,HYDMNFIARVPLSQSL,inactive
6,EWLGNCRNDCVMWLCYNMAS,inactive
7,CYRLQAFNARGTERTDAVYL,inactive
8,FISLPWYCQLVMVRDTSIIK,inactive
9,WDCVNSAHWVLDMFSNSYVS,inactive
10,CSNKQSDTSFAYLTIMNMCP,inactive
11,SFELVQWDS,inactive
12,SILLVFHFKANVCLVFT,inactive
13,NTDVVCMLNWLLTW,inactive
14,TLFDRFWVLWNEKWESSGKY,inactive
15,IKQDVASSVFM,inactive
16,TMYIAHGELGFIRNHLDISR,1.04 ± 0.11
17,SFFLDILRVWYYNVPNVPAR,inactive
18,SNFLLSSLIHLVPMMSL,inactive
19,VFEAAALVCNCGTWDRGLND,1.79 ± 0.1
20,NMNSWAMQWTICTHSTFVLS,inactive
21,TSFWGGALEDSATITLECWF,-0.24 ± 1.3
22,AVATCP,inactive
23,IIRSGGNGLCSTKYLSSHFL,inactive

row,Substance,amyloid nucleation score
1,PNRVGAVPGG,inactive
2,YSLRVHSAYIVVKYII,inactive
3,SMCGYWRHI,inactive
4,NNPLLIRDLHLTKVDISAVC,inactive
5,RLLSAV,inactive
6,RLSSLPHCVIM,inactive
7,GDIRLGVAFRIFLSNCWGYF,inactive
8,SGTSFISTKFSISLSIWLTA,inactive
9,LDILTDAFQLLCNKKHNNKP,inactive
10,DPLILPIVVDRIVADDCYCQ,inactive
11,CFMSNIDIFLDRCMRKGCNH,2.08 ± 0.072
12,WLVYVVLRM,inactive
13,FVRGCSRNSTRDCFYK,inactive
14,DMLAYADMLHNFFNSSVHFW,inactive
15,CRCHRLVNIPSMFWCLKFVG,inactive
16,CMFVVFQLVTGHFTLLQYHG,1.82 ± 0.077
17,LDRVSTVGSKNLFQRCCKIS,inactive
18,LRARPLLITFGVEWGSASDP,0.465 ± 0.22
19,YSVPRKSIICIKFDGFWRCV,1.96 ± 0.096
20,VLCPFRLFMSNTYLTFAMSC,inactive
21,IDKFVRFCIFSWCLMNGDVG,inactive
22,SANSQYDI,inactive
23,GFTRKFSFYKRHQSVWITRR,inactive

row,Substance,amyloid nucleation score
1,NPVRSKWYKVCCDNVGVYMD,inactive
2,LIVLVMHKLYKLWSGRLRVV,inactive
3,FIIDVLTMASTLGCSVQN,inactive
4,VLRTTECVQG,inactive
5,LPTCYSF,inactive
6,ATMKWFCIKHSFFPIGTCYA,inactive
7,FFVYHTILRLPNGAGLRCGP,inactive
8,GQSLLFRISLISCV,0.199 ± 0.23
9,YSAAYEIIIFICQCCNLKVG,inactive
10,NLVSQK,inactive
11,RISAFWLYTACQFGSDLDTC,inactive
12,DFIFIQILDVNCRWDRCMYC,0.444 ± 0.16
13,RVTDLRYIKMFVCIILCTGL,inactive
14,YSRTDSQGMTNEMVNLGVDV,inactive
15,VMDGFHKHIFFVVCTSRHNF,0.271 ± 0.77
16,PSPLDSRLEHYRMDSTCRVV,inactive
17,CYSPQFVCYATGHVKSDLML,inactive
18,WVCMVNSRRSCIRNS,0.381 ± 0.75
19,DLGYVLLMTHSRIMMCLHHY,inactive
20,GSLMRVLLFEYLMDTCLWIV,inactive
21,CRLRGKLIYLLIMDGTKE,inactive
22,MNEKENMMNTQWIVCNTCAK,inactive
23,CCRGRAFVGYLLQIIYVRGR,inactive

row,Substance,amyloid nucleation score
1,QKHISY,inactive
2,STQNGYRQNEFSRSRMMAPD,inactive
3,YFMVINR,1.98 ± 0.071
4,PFHRIPISVSLGYAFGTRCS,inactive
5,MLFHDSVSSTWRIFELCSRC,inactive
6,SPGGLGFSVNLHCSTYFRPS,1.24 ± 0.14
7,QMQTATRHFNLG,inactive
8,NLMGQTSGCQCVNTACLKPC,inactive
9,TFRYCTVLMFAVSFWQFHRC,inactive
10,FNTFVPRKYH,inactive
11,VFPFIRNKV,inactive
12,VDWKVAR,inactive
13,RRYGTDRLLMRYSIENFCVL,inactive
14,FQYRLTVEGMSWWTGGW,inactive
15,VIRPFVYGDNLVSSTTAMIF,inactive
16,GVVSCHSFSRRRKALRGYSS,inactive
17,VTQSQRKASFMVCSYSTITR,inactive
18,QTMDTYLWLAR,-0.083 ± 1.1
19,VCITRMQVRLPTYLRVQSKA,inactive
20,ILIRITGAFYIMIINNRRLL,inactive
21,WDHTA,inactive
22,LIYRLGNVHVPKYW,inactive
23,MGYPTISFCFNVYAFSVRIV,0.697 ± 0.2

row,Substance,amyloid nucleation score
1,IQFPDQ,inactive
2,KVADSVIEFMLTCWGIRQDS,inactive
3,FTSMFVLIVILSQMLSLQFR,inactive
4,GPGSYWEMRTN,inactive
5,TMNLCS,inactive
6,FNLSVINSRGQLECVLNPVK,inactive
7,YCTFDVCGFSSASSEGFNTA,0.465 ± 0.32
8,RFLLLRSCMSIDWRVGLEIF,inactive
9,YCDLY,inactive
10,HYWQYMFYSLHFVYRS,inactive
11,EMCSA,inactive
12,TVRWDVSLMFMRPMMYGEPK,-0.13 ± 1.1
13,RRCMFIFSYWPRRVLATVLK,inactive
14,SLTEQNL,inactive
15,YCGLVHVSHLGVGREIGRRV,inactive
16,WVGLVPYPMVAQEVFNHQD,inactive
17,LKDYYFVLGHALYVLRNPMS,1.08 ± 0.13
18,LYMSWAKTLFGECNCSHVLL,inactive
19,YDKQENVEGLFALF,inactive
20,SFIVETVDQDVLG,inactive
21,SILYD,inactive
22,IGDDGFVN,inactive
23,SYSFEYNHSDKFVSLYYMDI,inactive

row,Substance,amyloid nucleation score
1,FGNFPSCE,inactive
2,SELHK,inactive
3,SIGPVCIRTQSRPQITLRMM,inactive
4,THFNGEFWALSTVCMWGGRV,0.06 ± 0.69
5,RWWTCSQSNSGVIFEQIYQT,inactive
6,FVDMIMKEDKFVLGQNFLRG,inactive
7,VNLNKGLRWNYFGDDMKPHR,1.19 ± 0.073
8,LVWSSSEVVFFA,inactive
9,SYSHYFILHHLRDSELSHCS,inactive
10,PPGLGYSMVFYSSVDMHMLS,inactive
11,RVTDLFRRLASNYILSSTTA,inactive
12,SDSGLKKV,inactive
13,GLWNDCKRWLRRS,inactive
14,NVYMRSYKIRSCMTFRTLAL,inactive
15,SSDQRASPGWGFLFHKCAQV,inactive
16,MIYYMLWTYWALPKPWNEYI,0.971 ± 0.16
17,QLVLPSFMVTLSCG,inactive
18,DLLDHGFEASSKDLEFRDHS,inactive
19,GIYFDSGLRGWHSLNHRCRR,0.132 ± 0.59
20,YSIKNGYGFRQSWYKQVLKL,inactive
